Results: paper PMC8062929, “ZmOrphan94 Transcription Factor Downregulates ZmPEPC1 Gene Expression in Maize Bundle Sheath Cells”

T1: Trx::ZmOrphan94 (Zea mays B73, UniProt C0P6E9 1-264)
T1 sequence: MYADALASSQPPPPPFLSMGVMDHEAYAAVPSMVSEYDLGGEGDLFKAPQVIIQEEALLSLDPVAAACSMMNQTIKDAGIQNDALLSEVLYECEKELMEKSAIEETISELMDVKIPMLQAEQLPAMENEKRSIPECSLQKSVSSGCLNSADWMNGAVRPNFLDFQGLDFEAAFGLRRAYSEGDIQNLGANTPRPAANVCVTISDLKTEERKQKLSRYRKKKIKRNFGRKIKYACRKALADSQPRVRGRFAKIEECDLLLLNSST


Columns and labels:
Trx::ZmOrphan94 [1] = target: T1, Trx::ZmOrphan94; test: EMSA; out-competed by unlabelled WT probe (400x); EMSA: 1 ug protein, 50 fmol probe in 10 ul; 10 mM HEPES pH 7.9, 40 mM KCl, 1 mM EDTA, 1 mM DTT, 50 ng herring sperm DNA, 15 ug BSA, 10% glycerol, 1 h on ice; 5% native PAGE; settings: protein: recombinant; tags: N-terminal Trx (pET32a); label: 32P; 5' overhang 4 nt on each strand as annealed
Trx::ZmOrphan94 [2] = target: T1, Trx::ZmOrphan94; test: EMSA; strongest band; out-competed by unlabelled WT probe (400x); EMSA: 1 ug protein, 50 fmol probe in 10 ul; 10 mM HEPES pH 7.9, 40 mM KCl, 1 mM EDTA, 1 mM DTT, 50 ng herring sperm DNA, 15 ug BSA, 10% glycerol, 1 h on ice; 5% native PAGE; settings: protein: recombinant; tags: N-terminal Trx (pET32a); label: 32P; 5' overhang 4 nt on each strand as annealed

Row | Binder | binding result (Trx::ZmOrphan94 [1]) | binding result (Trx::ZmOrphan94 [2])
1 | 5U-ZmPEPC1-2 (dsDNA) DNA 1: ACGTGCGAGGGCCGCCCGTTCCCGTGCACAGCCACG DNA 2: ATCACGTGGCTGTGCACGGGAACGGGCGGCCCTCGC | binds | 
2 | 5U-ZmPEPC1-1 (dsDNA) DNA 1: ACGTGGCGGTTACCGCCGATCACATGCCCAAGGCCG DNA 2: ACATCGGCCTTGGGCATGTGATCGGCGGTAACCGCC | binds | 
3 | 5U-ZmPEPC1-3 (dsDNA) DNA 1: ACGTGTCCCGTGCACAGCCACACACACACCCGCCCG DNA 2: ATCACGGGCGGGTGTGTGTGTGGCTGTGCACGGGAC |  | binds
